Measured values: patent US12139542B2, “Inhibitors of aortic carboxypeptidase-like protein (ACLP)” (TRUSTEES OF BOSTON UNIVERSITY, priority 2014, dated 2024)

T1: TGFβ Receptor II (TβRII) (Mus musculus, UniProt Q62312)
T1 construct: contains the extracellular domain of mouse TβRII fused to the Fc domain of human IgG; purchased R&D
T1 sequence (Q62312 24-166 limits assumed): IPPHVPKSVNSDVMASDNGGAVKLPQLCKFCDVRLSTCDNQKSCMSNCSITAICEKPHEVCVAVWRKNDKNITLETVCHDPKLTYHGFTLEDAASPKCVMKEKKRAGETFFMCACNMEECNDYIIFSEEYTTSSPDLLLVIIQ


Legend:
[1] = test system: IMR90 human lung fibroblast cells; test: SMA and collagen I protein expression in IMR90 fibroblasts treated with recombinant ACLP proteins (Western blot); type: cell-based; details: IMR90, low serum media, 3.75 μg/ml (~30 nM) protein, 48 h, vs control cells
Protocol: Cell Treatments. IMR90 human lung fibroblasts (ATCC) and AD293 cells (Stratagene) were grown in DMEM supplemented with 10% FBS and 1% penicillin/streptomycin and incubated in a 5% CO2 atmosphere at 37° C. Mink lung epithelial cells stably transfected with the plasminogen activator inhibitor 1 (PAI-1) reporter construct driving luciferase expression (MLEC-TGFβ) (2) were grown in DMEM supplemented with 10% FBS and 1% penicillin/streptomycin, maintained in 250 μg/ml G418, and incubated in a 5% CO2 atmosphere at 37° C.
(§1) IMR90 cells and MLEC-TGFβ cells were generally treated for 30 min, 24 h, or 48 h in low serum media containing 0.5% FBS and 1% penicillin/streptomycin and incubated in a 5% CO2 atmosphere at 37° C. Cells were treated with 3.75 μg/ml (approximately 30 nM) rACLP (full length, Tsp, or C-terminal) or 1 nM TGFβ (R&D) (as a positive control), except where indicated. Cells treated for 30 min were serum starved in low serum media overnight preceding treatment.
Recombinant ACLP induces myofibroblast gene and protein expression. To further define the role of ACLP in the fibroblast to myofibroblast differentiation process, IMR90 human lung fibroblast cells were treated with rACLP. […] IMR90 cells were grown in media containing 3.75 μg/ml (30 nM) rACLP or 1 nM TGFβ as a positive control (FIG. 2A). […] These findings indicate that ACLP promotes the fibroblast to myofibroblast differentiation because it stimulates expression of SMA and collagen 1(3).
The N-terminal domain of ACLP promotes myofibroblast marker protein expression. Because the inventors discovered that the N-terminal Tsp motifs of ACLP (e.g. the PFD) is the domain responsible for promoting TGFβ signaling, the inventors next assessed which domain of ACLP is responsible for increased SMA and collagen I expression in lung myofibroblasts. IMR90 lung fibroblasts were treated in low serum media containing equal molar amounts of full-length protein, the pro-fibrotic domain (PFD) of ACLP, and C-terminal ACLP (˜30 nM) for 48 h (FIG. 7).

[2] = test system: Smad3 phosphorylation (canonical TGFβ signaling); test: Smad3 phosphorylation in serum starved IMR90 fibroblasts (Western blot); type: cell-based, human; details: serum starved IMR90, ~30 nM protein, 30 min, low serum media
Protocol: as §1
rACLP stimulates canonical TGFβ signaling (Published Tumelty et al JBC 2014). Because ACLP increases TGFβ signaling in a reporter assay, the role of ACLP in canonical TGFβ signaling was investigated in detail. In pulmonary fibroblasts, TGFβ promotes the phosphorylation of Smad3 which then binds to Smad4 and translocates into the nucleus to promote transcription of myofibroblast marker genes (4,5). Therefore, the effects of ACLP on Smad3 phosphorylation were measured. Serum starved IMR90 cells were treated with rACLP for 15, 30, 45, or 60 min, or 24 h (FIG. 3) (3).
Serum starved IMR90 human lung fibroblasts were treated with equivalent molar amounts (˜30 nM) of purified full-length, Tsp repeat domain, or C-terminal protein for 30 min in low serum media (FIG. 6).

[3] = test system: TGFβ signaling activity (PAI-1 promoter luciferase); test: MLEC-TGFβ activity assay (PAI-1 promoter luciferase reporter); type: cell-based, mink; details: MLEC-TGFβ cells, treated overnight in low serum media
Protocol: Cell Treatments. IMR90 human lung fibroblasts (ATCC) and AD293 cells (Stratagene) were grown in DMEM supplemented with 10% FBS and 1% penicillin/streptomycin and incubated in a 5% CO2 atmosphere at 37° C. Mink lung epithelial cells stably transfected with the plasminogen activator inhibitor 1 (PAI-1) reporter construct driving luciferase expression (MLEC-TGFβ) (2) were grown in DMEM supplemented with 10% FBS and 1% penicillin/streptomycin, maintained in 250 μg/ml G418, and incubated in a 5% CO2 atmosphere at 37° C. IMR90 cells and MLEC-TGFβ cells were generally treated for 30 min, 24 h, or 48 h in low serum media containing 0.5% FBS and 1% penicillin/streptomycin and incubated in a 5% CO2 atmosphere at 37° C. Cells were treated with 3.75 μg/ml (approximately 30 nM) rACLP (full length, Tsp, or C-terminal) or 1 nM TGFβ (R&D) (as a positive control), except where indicated. Cells treated for 30 min were serum starved in low serum media overnight preceding treatment. MLEC-TGFβ activity assay. To measure TGFβ signaling activity, 1×10^4 MLEC-TGFβ cells/well were plated on white 96-well cell culture treated plates and allowed to adhere overnight. […] Luciferase activity was measured on an auto-injecting BioTek Synergy HT plate reader using 50 μl of luciferase assay substrate (Promega).

TGFβ Receptor II (TβRII) = target: T1, TGFβ Receptor II (TβRII); test: ACLP binding assay: biotinylated rACLP on streptavidin plate incubated with TβRII Fc
Protocol: ACLP binding assays. To determine if ACLP binds to TGFβ Receptor II (TORII), ACLP was biotinylated using an EZ-Link Sulfo-NHS-LC-Biotin kit (Thermo Scientific 21327) according to manufacturer's instructions. Briefly, rACLP (0.267 nM) was incubated with 20 fold molar excess of biotin for 30 min at room temperature. The protein was then dialyzed back into DPBS overnight. Biotinylated ACLP (1 μg/well) was immobilized on a PIERCE™ Streptavidin coated High-Binding Capacity Plate (Thermo-Scientific PI-15500) overnight at 4° C. in binding buffer made up of PBS with Mg^2+, Ca^2+, 0.1% BSA, and 0.05% Tween 20). The next day, the plates were washed with binding buffer, blocked with the same buffer containing 1% BSA at room temperature for 1 h, followed by incubation with increasing amounts of TβRII Fc (0, 10, 100, 1000 ng). Binding was detected with Human-IgG-HRP (GE Healthcare Life Sciences) followed by incubation with 3,3′,5,5′-Tetramethylbenzidine (TMB, eBioscience). The reaction was quenched with 2 M H2SO4 and absorbance at 450 nm was measured on the BioTek Synergy HT system.
ACLP binds to the TGFβ-receptor II. […] The TβRII Fc chimera contains the extracellular domain of mouse TβRII fused to the Fc domain of human IgG and has been used as a global inhibitor of TGFβ (6).

ACLP signaling (pSmad3) = test: TGFβ receptor-Fc decoy block of rACLP-induced pSmad3 in IMR90 fibroblasts; type: cell-based; details: IMR90 human lung fibroblast cells, 90 mins
[4] = test system: ACLP-induced myofibroblast differentiation; test: TGFβ receptor-Fc decoy block of ACLP-induced SMA and SM-MHC expression in human lung fibroblasts; type: cell-based; details: human lung fibroblast cells with rACLP, 48 hours

amount that stimulated luciferase activity [3] [µg/mL] | binding to streptavidin wells without ACLP (TGFβ Receptor II (TβRII); control wells without ACLP) | amount that inhibited ACLP binding to TGFβ-RII in vitro (TGFβ Receptor II (TβRII); in vitro) | pSmad3 expression in the presence of mouse rACLP (ACLP signaling (pSmad3)) | ACLP-induced SM-MHC expression [4] | ACLP-induced SMA expression [4] | Molecule | SMA protein expression [1] | collagen protein expression [1] | Smad3 phosphorylation [2]
≤ 5 |  |  |  |  |  | Tsp repeat domain: recombinant N-terminal Tsp repeat domain of mouse ACLP, amino acids 26-373, myc-His tagged (protein, left off: small tags and cut ends, recombinant N-terminal Tsp repeat domain of mouse ACLP, amino acids 26-373, myc-His tagged) QTVLTDDEIEEFLEGFLSELETQSPPREDDVEVQPLPEPTQRPRKSKAGGKQRADVEVPPEKNKDKEKKGKKDKGPKATKPLEGSTRPTKKPKEKPPKATKKPKEKPPKATKKPKEKPPKATKKPKEKPPKATKRPSAGKKFSTVAPLETLDRLLPSPSNPSAQELPQKRDTPFPNAWQGQGEETQVEAKQPRPEPEEETEMPTLDYNDQIEKEDYEDFEYIRRQKQPRPTPSRRRLWPERPEEKTEEPEERKEVEPPLKPLLPPDYGDSYVIPNYDDLDYYFPHPPPQKPDVGQEVDEEKEEMKKPKKEGSSPKEDTEDKWTVEKNKDHKGPRKGEELEEEWAPVEK | promoted an increase | promoted an increase | stimulated Smad3 phosphorylation
 | did not bind | at least 100 ng | decreases pSmad3 expression | decreases | decreases | TβRII Fc: extracellular domain of mouse TβRII fused to the Fc domain of human IgG (R&D); exemplary decoy ACLP inhibitor (protein, left off: a dimerising Fc or GST) IPPHVPKSVNSDVMASDNGGAVKLPQLCKFCDVRLSTCDNQKSCMSNCSITAICEKPHEVCVAVWRKNDKNITLETVCHDPKLTYHGFTLEDAASPKCVMKEKKRAGETFFMCACNMEECNDYIIFSEEYTTSSPDLLLVIIQ |  |  | 
